# Measured values as given in patent US20220204580A1 (AstraZeneca / MedImmune, published 2022).
# Numbered stars: 1 amine (or outer) side, 2 acyl side, 3 side chain; on linkers, the order of the positions; unused ones are H or OH. Bridge positions count the residues as written; N and C are the ends. Square brackets hold non-standard residues; d marks the D form. Side chains are listed from the residue outwards. Ends that are not written are not given here. * marks the point of attachment. C20 diacid = O=C(O)CCCCCCCCCCCCCCCCCCC(=O)*; C18 diacid = O=C(O)CCCCCCCCCCCCCCCCC(=O)*; γGlu = O=C(O)[C@H](CCC(=O)[*:2])N[*:1]; Hyp = O=C(O)[C@@H]1C[C@@H](O)CN1; Dab = NCC[C@H](N)C(=O)O; Aib = CC(C)(N)C(=O)O
# T1: human amylin receptor (calcitonin receptor co-expressed with receptor activity modifying protein, RAMP3) (human, UniProt P30988 25-474; O60896 24-148)
# T1 sequence (looked up) 1: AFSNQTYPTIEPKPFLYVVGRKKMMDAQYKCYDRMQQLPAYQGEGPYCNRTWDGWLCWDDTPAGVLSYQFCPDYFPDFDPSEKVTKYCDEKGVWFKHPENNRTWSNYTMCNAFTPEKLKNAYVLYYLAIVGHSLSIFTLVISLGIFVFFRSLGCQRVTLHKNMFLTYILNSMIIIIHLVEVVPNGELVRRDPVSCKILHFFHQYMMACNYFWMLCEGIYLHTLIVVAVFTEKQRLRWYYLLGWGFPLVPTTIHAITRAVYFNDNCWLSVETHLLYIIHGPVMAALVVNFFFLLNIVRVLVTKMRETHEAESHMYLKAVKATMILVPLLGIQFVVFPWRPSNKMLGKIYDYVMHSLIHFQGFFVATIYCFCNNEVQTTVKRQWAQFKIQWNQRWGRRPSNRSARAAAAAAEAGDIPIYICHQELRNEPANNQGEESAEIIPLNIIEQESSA
# T1 sequence (looked up) 2: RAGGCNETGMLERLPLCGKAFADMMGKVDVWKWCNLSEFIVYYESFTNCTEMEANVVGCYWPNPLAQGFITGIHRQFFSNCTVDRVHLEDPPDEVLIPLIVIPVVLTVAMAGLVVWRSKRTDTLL
# T2: human calcitonin receptor (human, UniProt P30988 25-474)
# T2 sequence (looked up): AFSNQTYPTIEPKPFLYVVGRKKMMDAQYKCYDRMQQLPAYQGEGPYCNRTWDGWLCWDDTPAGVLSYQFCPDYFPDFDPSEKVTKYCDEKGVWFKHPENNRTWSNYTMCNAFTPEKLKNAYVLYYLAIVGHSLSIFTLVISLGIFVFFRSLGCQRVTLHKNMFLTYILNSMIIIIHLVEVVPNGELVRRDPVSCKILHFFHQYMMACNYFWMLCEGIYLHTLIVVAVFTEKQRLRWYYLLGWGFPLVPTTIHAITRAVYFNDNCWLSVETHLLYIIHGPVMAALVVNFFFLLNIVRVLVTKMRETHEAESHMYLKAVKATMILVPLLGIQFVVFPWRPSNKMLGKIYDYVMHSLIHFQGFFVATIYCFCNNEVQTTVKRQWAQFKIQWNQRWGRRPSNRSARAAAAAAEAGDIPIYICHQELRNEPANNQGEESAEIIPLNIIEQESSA
# Assays:
# [1] = biological target: T1, human amylin receptor (calcitonin …); test: cell-based or functional assay
# [2] = biological target: T2, human calcitonin receptor; test: cell-based or functional assay
Binder,EC50 (cAMP production) [1] [nM],Ratio (EC50 hCTR / EC50 hAMYR3) [1],EC50 (cAMP production) [2] [nM]
K([γGlu-γGlu-C20 diacid])CNAATCATQRLANWLVHSSPNFPAILSPTNVGSNTY-NH2 (disulfide 2-7; N-terminus assumed; SMILES CC[C@H](C)[C@H](NC(=O)[C@H](C)NC(=O)[C@@H]1CCCN1C(=O)[C@H](Cc1ccccc1)NC(=O)[C@H](CC(N)=O)NC(=O)[C@@H]1CCCN1C(=O)[C@H](CO)NC(=O)[C@H](CO)NC(=O)[C@H](Cc1c[nH]cn1)NC(=O)[C@@H](NC(=O)[C@H](CC(C)C)NC(=O)[C@H](Cc1c[nH]c2ccccc12)NC(=O)[C@H](CC(N)=O)NC(=O)[C@H](C)NC(=O)[C@H](CC(C)C)NC(=O)[C@H](CCCNC(=N)N)NC(=O)[C@H](CCC(N)=O)NC(=O)[C@@H](NC(=O)[C@H](C)NC(=O)[C@@H]1CSSC[C@H](NC(=O)[C@@H](N)CCCCNC(=O)CC[C@H](NC(=O)CC[C@H](NC(=O)CCCCCCCCCCCCCCCCCCC(=O)O)C(=O)O)C(=O)O)C(=O)N[C@@H](CC(N)=O)C(=O)N[C@@H](C)C(=O)N[C@@H](C)C(=O)N[C@@H]([C@@H](C)O)C(=O)N1)[C@@H](C)O)C(C)C)C(=O)N[C@@H](CC(C)C)C(=O)N[C@@H](CO)C(=O)N1CCC[C@H]1C(=O)N[C@H](C(=O)N[C@@H](CC(N)=O)C(=O)N[C@H](C(=O)NCC(=O)N[C@@H](CO)C(=O)N[C@@H](CC(N)=O)C(=O)N[C@H](C(=O)N[C@@H](Cc1ccc(O)cc1)C(N)=O)[C@@H](C)O)C(C)C)[C@@H](C)O) [Peptide 120 (SEQ ID NO: 120)],1.77,6,10.7
K([γGlu-γGlu-C18 diacid])CNTATCATQRLANFLVHSS[Aib]NFPAILSPT[Dab]VGSNTY-NH2 (disulfide 2-7; N-terminus assumed; SMILES CC[C@H](C)[C@H](NC(=O)[C@H](C)NC(=O)[C@@H]1CCCN1C(=O)[C@H](Cc1ccccc1)NC(=O)[C@H](CC(N)=O)NC(=O)C(C)(C)NC(=O)[C@H](CO)NC(=O)[C@H](CO)NC(=O)[C@H](Cc1c[nH]cn1)NC(=O)[C@@H](NC(=O)[C@H](CC(C)C)NC(=O)[C@H](Cc1ccccc1)NC(=O)[C@H](CC(N)=O)NC(=O)[C@H](C)NC(=O)[C@H](CC(C)C)NC(=O)[C@H](CCCNC(=N)N)NC(=O)[C@H](CCC(N)=O)NC(=O)[C@@H](NC(=O)[C@H](C)NC(=O)[C@@H]1CSSC[C@H](NC(=O)[C@@H](N)CCCCNC(=O)CC[C@H](NC(=O)CC[C@H](NC(=O)CCCCCCCCCCCCCCCCC(=O)O)C(=O)O)C(=O)O)C(=O)N[C@@H](CC(N)=O)C(=O)N[C@@H]([C@@H](C)O)C(=O)N[C@@H](C)C(=O)N[C@@H]([C@@H](C)O)C(=O)N1)[C@@H](C)O)C(C)C)C(=O)N[C@@H](CC(C)C)C(=O)N[C@@H](CO)C(=O)N1CCC[C@H]1C(=O)N[C@H](C(=O)N[C@@H](CCN)C(=O)N[C@H](C(=O)NCC(=O)N[C@@H](CO)C(=O)N[C@@H](CC(N)=O)C(=O)N[C@H](C(=O)N[C@@H](Cc1ccc(O)cc1)C(N)=O)[C@@H](C)O)C(C)C)[C@@H](C)O) [Peptide 122 (SEQ ID NO: 122)],0.655,9,6.18

# Second part, the binder after the results:
EC50 (cAMP production) [1] [nM],Ratio (EC50 hCTR / EC50 hAMYR3) [1],EC50 (cAMP production) [2] [nM],Binder
0.873,5,4.79,K([γGlu-γGlu-C20 diacid])CNTATCATQRLANFLVHSS[Aib]NFPAILSPT[Dab]VGSNTY-NH2 (disulfide 2-7; N-terminus assumed; SMILES CC[C@H](C)[C@H](NC(=O)[C@H](C)NC(=O)[C@@H]1CCCN1C(=O)[C@H](Cc1ccccc1)NC(=O)[C@H](CC(N)=O)NC(=O)C(C)(C)NC(=O)[C@H](CO)NC(=O)[C@H](CO)NC(=O)[C@H](Cc1c[nH]cn1)NC(=O)[C@@H](NC(=O)[C@H](CC(C)C)NC(=O)[C@H](Cc1ccccc1)NC(=O)[C@H](CC(N)=O)NC(=O)[C@H](C)NC(=O)[C@H](CC(C)C)NC(=O)[C@H](CCCNC(=N)N)NC(=O)[C@H](CCC(N)=O)NC(=O)[C@@H](NC(=O)[C@H](C)NC(=O)[C@@H]1CSSC[C@H](NC(=O)[C@@H](N)CCCCNC(=O)CC[C@H](NC(=O)CC[C@H](NC(=O)CCCCCCCCCCCCCCCCCCC(=O)O)C(=O)O)C(=O)O)C(=O)N[C@@H](CC(N)=O)C(=O)N[C@@H]([C@@H](C)O)C(=O)N[C@@H](C)C(=O)N[C@@H]([C@@H](C)O)C(=O)N1)[C@@H](C)O)C(C)C)C(=O)N[C@@H](CC(C)C)C(=O)N[C@@H](CO)C(=O)N1CCC[C@H]1C(=O)N[C@H](C(=O)N[C@@H](CCN)C(=O)N[C@H](C(=O)NCC(=O)N[C@@H](CO)C(=O)N[C@@H](CC(N)=O)C(=O)N[C@H](C(=O)N[C@@H](Cc1ccc(O)cc1)C(N)=O)[C@@H](C)O)C(C)C)[C@@H](C)O) [Peptide 123 (SEQ ID NO: 123)]
1.33,5,6.07,K([γGlu-γGlu-C20 diacid])CNTATCATQRLANFLVHSS[Aib]NF[Hyp]AILSPTNVGSNTY-NH2 (disulfide 2-7; not fully specified; printed as K(γE-γE-C20diacid)[CNTATC]ATQRLANFLVHSS(Aib)NF(Hyp)AILSPTNVGSNTY-amide) [Peptide 121 (SEQ ID NO: 121)]
1.13,6,6.63,K([γGlu-γGlu-C18 diacid])CNTATCATQRLANFLVHSS[Aib]NFPAILSPTNVGS[Dab]TY-NH2 (disulfide 2-7; N-terminus assumed; SMILES CC[C@H](C)[C@H](NC(=O)[C@H](C)NC(=O)[C@@H]1CCCN1C(=O)[C@H](Cc1ccccc1)NC(=O)[C@H](CC(N)=O)NC(=O)C(C)(C)NC(=O)[C@H](CO)NC(=O)[C@H](CO)NC(=O)[C@H](Cc1c[nH]cn1)NC(=O)[C@@H](NC(=O)[C@H](CC(C)C)NC(=O)[C@H](Cc1ccccc1)NC(=O)[C@H](CC(N)=O)NC(=O)[C@H](C)NC(=O)[C@H](CC(C)C)NC(=O)[C@H](CCCNC(=N)N)NC(=O)[C@H](CCC(N)=O)NC(=O)[C@@H](NC(=O)[C@H](C)NC(=O)[C@@H]1CSSC[C@H](NC(=O)[C@@H](N)CCCCNC(=O)CC[C@H](NC(=O)CC[C@H](NC(=O)CCCCCCCCCCCCCCCCC(=O)O)C(=O)O)C(=O)O)C(=O)N[C@@H](CC(N)=O)C(=O)N[C@@H]([C@@H](C)O)C(=O)N[C@@H](C)C(=O)N[C@@H]([C@@H](C)O)C(=O)N1)[C@@H](C)O)C(C)C)C(=O)N[C@@H](CC(C)C)C(=O)N[C@@H](CO)C(=O)N1CCC[C@H]1C(=O)N[C@H](C(=O)N[C@@H](CC(N)=O)C(=O)N[C@H](C(=O)NCC(=O)N[C@@H](CO)C(=O)N[C@@H](CCN)C(=O)N[C@H](C(=O)N[C@@H](Cc1ccc(O)cc1)C(N)=O)[C@@H](C)O)C(C)C)[C@@H](C)O) [Peptide 124 (SEQ ID NO: 124)]
